The values that follow are results of earlier work, collected in US20160346224A1, “COMPOSITIONS AND METHODS FOR REDUCING VISUAL LOSS” (Edge Therapeutics, Inc., priority 2015, published 2016).

No end group written: not given here.

Data set [1] deals with T1, R-type calcium current in the neurohypophysial nerve endings (Rattus norvegicus, UniProt Q07652).
T1 construct: R-type calcium current in the neurohypophysial nerve endings at 40 nM concentration; host or cells: neurohypophysial nerve endings (native tissue preparation)
The following applies: at 40 nM concentration.

Data set [2] deals with K+ and Na+ currents, and L, P/Q and T-type calcium currents.
A further data set addresses N-type calcium current (Homo sapiens, UniProt Q00975). The following applies: at 300 nM to 500 nM.
For data set [3], the system named is R-type current in preparations of the neuronal cell body, retinal ganglion cells and hippocampal pyramidal cells.

T1 sequence (Q07652 whole entry): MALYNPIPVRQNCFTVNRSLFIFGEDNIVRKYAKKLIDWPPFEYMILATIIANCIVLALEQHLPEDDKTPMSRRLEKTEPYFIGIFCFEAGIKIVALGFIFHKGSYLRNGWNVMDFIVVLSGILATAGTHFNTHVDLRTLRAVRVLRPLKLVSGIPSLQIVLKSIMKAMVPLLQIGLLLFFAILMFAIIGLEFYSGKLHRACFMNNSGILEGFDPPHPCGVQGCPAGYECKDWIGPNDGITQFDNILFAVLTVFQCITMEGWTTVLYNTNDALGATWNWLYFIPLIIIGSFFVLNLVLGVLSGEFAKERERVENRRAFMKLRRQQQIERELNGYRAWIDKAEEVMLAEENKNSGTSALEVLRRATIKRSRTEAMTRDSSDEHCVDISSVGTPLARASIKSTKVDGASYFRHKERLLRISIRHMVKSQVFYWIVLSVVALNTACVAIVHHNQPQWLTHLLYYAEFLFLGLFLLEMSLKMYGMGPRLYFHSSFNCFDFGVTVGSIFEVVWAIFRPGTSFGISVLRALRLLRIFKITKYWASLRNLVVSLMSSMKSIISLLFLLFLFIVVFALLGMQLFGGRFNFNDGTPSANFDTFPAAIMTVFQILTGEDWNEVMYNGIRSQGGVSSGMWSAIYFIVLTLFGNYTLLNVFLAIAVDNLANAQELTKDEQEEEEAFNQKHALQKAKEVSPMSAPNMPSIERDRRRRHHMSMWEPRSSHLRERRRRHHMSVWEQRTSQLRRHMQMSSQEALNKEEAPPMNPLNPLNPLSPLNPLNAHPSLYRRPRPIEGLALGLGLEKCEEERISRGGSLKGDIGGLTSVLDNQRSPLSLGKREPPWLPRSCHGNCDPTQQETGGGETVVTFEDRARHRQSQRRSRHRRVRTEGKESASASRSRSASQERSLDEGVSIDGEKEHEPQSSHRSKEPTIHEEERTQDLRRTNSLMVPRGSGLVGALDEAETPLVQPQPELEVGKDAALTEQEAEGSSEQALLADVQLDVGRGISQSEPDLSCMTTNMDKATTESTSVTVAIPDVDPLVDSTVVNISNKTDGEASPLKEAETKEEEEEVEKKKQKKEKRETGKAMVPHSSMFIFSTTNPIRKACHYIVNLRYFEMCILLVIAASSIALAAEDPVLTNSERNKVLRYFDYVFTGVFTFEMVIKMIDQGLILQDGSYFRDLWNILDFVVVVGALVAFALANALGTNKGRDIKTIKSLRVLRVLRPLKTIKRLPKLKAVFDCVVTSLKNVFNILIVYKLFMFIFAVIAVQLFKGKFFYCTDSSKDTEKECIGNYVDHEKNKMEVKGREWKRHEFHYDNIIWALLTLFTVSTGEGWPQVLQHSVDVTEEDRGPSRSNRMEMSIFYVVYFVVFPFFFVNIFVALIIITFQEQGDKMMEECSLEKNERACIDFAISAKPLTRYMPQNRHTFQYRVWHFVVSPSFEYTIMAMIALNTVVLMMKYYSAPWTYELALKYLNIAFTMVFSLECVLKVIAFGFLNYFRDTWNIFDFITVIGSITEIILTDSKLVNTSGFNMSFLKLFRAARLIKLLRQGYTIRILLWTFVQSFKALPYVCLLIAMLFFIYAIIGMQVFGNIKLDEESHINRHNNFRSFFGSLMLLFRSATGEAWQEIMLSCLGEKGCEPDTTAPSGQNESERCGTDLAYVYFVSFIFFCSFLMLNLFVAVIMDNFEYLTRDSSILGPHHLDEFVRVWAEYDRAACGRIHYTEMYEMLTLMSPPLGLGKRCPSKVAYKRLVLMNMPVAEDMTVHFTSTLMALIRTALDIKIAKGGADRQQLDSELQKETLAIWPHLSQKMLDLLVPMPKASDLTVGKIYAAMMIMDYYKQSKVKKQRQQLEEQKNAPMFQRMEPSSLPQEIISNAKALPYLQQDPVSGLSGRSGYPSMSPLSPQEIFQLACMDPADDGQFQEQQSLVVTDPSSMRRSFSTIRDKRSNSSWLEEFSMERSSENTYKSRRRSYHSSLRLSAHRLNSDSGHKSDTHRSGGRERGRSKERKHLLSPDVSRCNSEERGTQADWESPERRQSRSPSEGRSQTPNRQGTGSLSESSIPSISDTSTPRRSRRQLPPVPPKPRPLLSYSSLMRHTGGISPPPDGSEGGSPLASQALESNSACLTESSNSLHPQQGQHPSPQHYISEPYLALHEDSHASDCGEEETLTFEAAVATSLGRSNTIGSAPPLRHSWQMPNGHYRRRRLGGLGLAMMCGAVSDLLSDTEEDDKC
Sequence of N-type calcium current (Q00975 whole entry): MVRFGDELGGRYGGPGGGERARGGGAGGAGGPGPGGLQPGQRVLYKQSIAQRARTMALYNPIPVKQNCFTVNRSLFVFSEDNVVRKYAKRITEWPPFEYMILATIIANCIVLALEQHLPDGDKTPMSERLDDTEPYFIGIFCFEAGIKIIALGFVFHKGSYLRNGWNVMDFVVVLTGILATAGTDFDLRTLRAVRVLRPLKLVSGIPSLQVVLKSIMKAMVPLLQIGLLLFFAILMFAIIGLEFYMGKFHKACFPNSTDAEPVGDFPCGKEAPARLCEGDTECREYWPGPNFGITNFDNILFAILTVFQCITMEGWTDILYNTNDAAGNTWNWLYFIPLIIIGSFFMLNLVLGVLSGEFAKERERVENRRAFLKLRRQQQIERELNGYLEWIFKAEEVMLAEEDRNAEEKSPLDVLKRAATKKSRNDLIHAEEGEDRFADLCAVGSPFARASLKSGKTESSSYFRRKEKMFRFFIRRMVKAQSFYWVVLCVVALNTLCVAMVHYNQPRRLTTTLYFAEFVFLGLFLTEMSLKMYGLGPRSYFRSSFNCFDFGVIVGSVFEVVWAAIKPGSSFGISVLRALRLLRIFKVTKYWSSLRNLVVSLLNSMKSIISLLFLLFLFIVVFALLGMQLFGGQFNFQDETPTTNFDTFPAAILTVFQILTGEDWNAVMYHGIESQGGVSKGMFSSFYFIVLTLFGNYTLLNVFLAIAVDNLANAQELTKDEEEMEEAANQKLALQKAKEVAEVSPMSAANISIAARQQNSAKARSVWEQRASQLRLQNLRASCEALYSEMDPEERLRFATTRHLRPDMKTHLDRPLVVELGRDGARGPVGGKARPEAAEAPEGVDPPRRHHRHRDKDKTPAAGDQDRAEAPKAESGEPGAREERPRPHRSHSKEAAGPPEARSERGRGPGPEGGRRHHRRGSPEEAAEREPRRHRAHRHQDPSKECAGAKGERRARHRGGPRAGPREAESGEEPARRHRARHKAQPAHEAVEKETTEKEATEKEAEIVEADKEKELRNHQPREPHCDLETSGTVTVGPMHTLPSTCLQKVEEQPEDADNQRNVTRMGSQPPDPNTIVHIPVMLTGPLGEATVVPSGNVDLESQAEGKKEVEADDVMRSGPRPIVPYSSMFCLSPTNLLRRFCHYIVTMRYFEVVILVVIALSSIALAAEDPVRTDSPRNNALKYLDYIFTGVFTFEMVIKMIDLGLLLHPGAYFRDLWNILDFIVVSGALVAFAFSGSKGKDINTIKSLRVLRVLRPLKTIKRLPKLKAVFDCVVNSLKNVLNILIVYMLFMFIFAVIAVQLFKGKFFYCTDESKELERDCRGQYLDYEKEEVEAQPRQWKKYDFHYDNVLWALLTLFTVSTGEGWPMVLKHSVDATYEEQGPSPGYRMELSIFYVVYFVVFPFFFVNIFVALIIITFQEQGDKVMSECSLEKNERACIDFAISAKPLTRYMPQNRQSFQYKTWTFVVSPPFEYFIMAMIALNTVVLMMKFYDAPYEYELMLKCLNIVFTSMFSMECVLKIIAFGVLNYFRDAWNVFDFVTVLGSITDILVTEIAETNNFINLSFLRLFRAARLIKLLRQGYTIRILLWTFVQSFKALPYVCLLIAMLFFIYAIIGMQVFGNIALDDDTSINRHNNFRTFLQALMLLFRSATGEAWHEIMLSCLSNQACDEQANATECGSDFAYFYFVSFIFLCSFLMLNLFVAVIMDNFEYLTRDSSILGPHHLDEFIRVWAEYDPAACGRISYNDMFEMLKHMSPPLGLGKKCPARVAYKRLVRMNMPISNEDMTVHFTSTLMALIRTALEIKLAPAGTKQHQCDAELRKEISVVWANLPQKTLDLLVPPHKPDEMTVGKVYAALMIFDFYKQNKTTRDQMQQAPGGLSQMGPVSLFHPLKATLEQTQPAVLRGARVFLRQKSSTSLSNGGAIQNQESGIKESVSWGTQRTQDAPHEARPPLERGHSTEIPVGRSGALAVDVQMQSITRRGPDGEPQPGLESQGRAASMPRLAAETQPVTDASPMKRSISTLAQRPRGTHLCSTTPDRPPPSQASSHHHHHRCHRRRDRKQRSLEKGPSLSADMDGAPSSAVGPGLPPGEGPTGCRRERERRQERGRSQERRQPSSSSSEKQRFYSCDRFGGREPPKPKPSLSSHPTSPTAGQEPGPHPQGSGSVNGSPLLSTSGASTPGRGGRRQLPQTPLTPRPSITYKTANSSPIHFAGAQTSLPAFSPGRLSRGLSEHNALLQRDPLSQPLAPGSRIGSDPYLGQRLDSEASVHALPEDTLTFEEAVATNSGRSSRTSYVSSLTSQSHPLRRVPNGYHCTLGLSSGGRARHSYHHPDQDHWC

For “SNX-482: toxin from the tarantula Hysterocrates gigas, a 41 amino acid residue peptide with 3 disulfide linkages; putative R-type selective antagonist (GVDKAGCRYMFGGCSVNDDCCPRLGCHSLFSYCAWDLTFSD; disulfide (positions not given here); also: 3 disulfide linkages, pairings not given here; UniProt P56854 1-41, looked up)”, the “block of R-type calcium current” value in data set [1] is given as “blocks”. Moreover, the “effect on K+ and Na+ currents, and L, P/Q and T-type calcium currents” value in data set [2] is “no effect”. In the data set with N-type calcium current, the “block of N-type calcium current” value was 30-50%. Further, the “effect on R-type current” value in data set [3] is recorded as “no significant effect”.
